Experiment: soluble on expression in E. coli; label from the status in PepcDB or PDB records

| Sequence | soluble on expression in E. coli |
| --- | --- |
| MSLATARTYLASLTVATEDRTGYDRDLFPHWITQSGTCNTRETILKRDGTNVVTDSSCAATSGSWYSPYDGATWSASSDVDIDHMVPLAEAWDSGADSWTTSRRQSFANDLTRPQLLAVTDNVNQSKGDQDPATWMPSRSAYRCTYVRAWVQVKYYYDLSVDSAEKSAMQGYLANCEGHHHHHH | not soluble |
| MVADSQPGHIDQIKQTNAGAVYRLIDQLGPVSRIDLSRLAQLAPASITKIVREMLEAHLVQELEIKEAGSRGRPAVGLMVETEAWHYLSIRISRGEIFLALRDLSSKLVVEECLPLPLTEATPLLERIITHVDRFFTRHQQKLERLTSIAITLPGIIDTENGVVHRMPYYEDVKEMPLGDSLERHTGVPVYIQHDISAWTMAEALFGASRGARDVIQVVIDHNVGAGVITDGHLLHAGSSSLVEIGHTQVDPYGKRCYCGNHGCLETIASVDSVLELTQLRLNQSMSSMLHGQPLTVDSLCQAAMQGDLLAKDIISGVGAHVGRILAIMVNLFNPQKILIGSPLSKAADILFPAIADSIRQQALPAYSRNTVVESTQFTNQGTMAGAALVKDAMYNGSLLIRLLQG | not soluble |
| MGHHHHHHSHMVKPLSPLNIQKLARHHGPRLWSQLLGRLRQVGHVGSGVRDQPGQHGETPISTKNTKISQASWPTPVVPATREAEVEGSLKSWGQGCSELLSHHCTPAWATVRPCLKKKRKMKQKLTCLLPPN | not soluble |
| MPALEFFKDKERGVLDPKVFERAREVAEGLARGKLKSSQFRNYFAELRALENRFERERRKEGEELAFARLVPQLELLRAKLFYNTRSQGPLRDAKEFVEFMEEALEAGKRSPKDFEAMMKYVEAVLAYFYALAK | soluble |
| VRIPALERGPGLKDLAIFSRQLATMLGAGLTLLQALAILERQTENRKFREILKQVRTDVEGGMAFSEALSKHKIFSRLYVNLVRAGETSGGLDLILDRLASFLEKELELRGKIRSA | soluble |
| MGSDKIHHHHHHMTTNEIEIRLMQDVDAAGVVELYKTVYGNEYPVKTVYDPAAVIEQQNNGEMYRIIARSGDKVVGQTALYRSTSPNPELYEEGQGIVLPLYRNQGILEQCLAYGHKVAYPQLNIKQEWGEAVCNHTFTQKAGARLGAFETGIELDLMPASSYVKEQSSQGRVAALVMFLIFQAAPPQLLYLPETYADSLHYLYSAYDFKHEFVSSKSLLPEQATRGQVEIYADAAVARFTLLETGKDLEDYLLEQEKLAQAQGCSVFQAYLKLANPAVGHAVNILREHQYFLGGILPRWFATDGLLMQKLLHEPNLEGINLYSERSHKILNMIIDDRNTVIK | not soluble |
| MVHTPLNFKFSEKREEWNLRFCRNVGVSIVELVTADASSAYVRGLMAVNGSKVYSILPFISIDAEKAKKAKFPEDRMSGVRGKVIPSVLPEIKGETILDIGCGFGTLTMELAKNNPESQVYGIDLHDSLTGQAEMNAEVLGLPNVEFRTGSAYALPFEKDSIDAVTCFLMLHHLEDIKFALFEIKRVLKKGGSLTAVEPLAHQHHHGPQLSEAEWKELFEEAGFGTETENMEGAVVLRAVKRELEHHHHHH | not soluble |
| MHINRTGSSQPSIELERFYSASQSLASSSVRELSPAEHANLQAITDYLKDHVFAAHKLPLSESAVDQDAVHAHNEQLDKIIDARARRLLDEGETPATIADTFAKAEKFDRMATTASITLRATPFAAASVLQYMQPAINKGDWLPMPLKPLTPFVSGALSGIMDQVGTTVMNRATGNLHYLSTPPEKLHDAMAASVKRHSPGVMRQAVDLGIAIQAYSARNAVRTVLAPALASRPAVQGAVDISVSAAGGLAANAGFGNRMHSVQARDHLRGGAFVLGIKDQEPKADLSEETDWLVAYKAIKSASYSGAALNAGKRVAGLPLDVATDGLKAVRSLVSATGLAQNGLALAGGFAGVGKLQEMATKNITDPATKAAVSQLTNMAASTGVFAAWTTAAVATDPAVKKAESFLQDTVKSAASSSTSYVADQTVKLAKAGIDASGEAIAATGASLLDTLRRRNAREPDIEEGGIAAGSPSAVPFQPGRS | not soluble |
| MGSDKIHHHHHHMPKLIIDADDFGLSKAINHGIIESYKTGITTSTLLMPNLETAEHAIALAKNHPDLFIGQHTNFLLGKPCANPAEIPSLVDENGEFHRSKYYRANPELKFQYEDVRTETIAQMERFKALTGHYPEHIDCHSIGDETVDQAFFDIAREFGIHTTLKYSGDKKWSDQEGYLPITKLLESGALPYTNGGVSVENFLNDDFGLLKLAPNEIAEMHFDVGFLDQFVLDNSSYTLMRCRELATICDVRVRDWLLENGFELITFGDLQR | not soluble |
| MALKNNTLWTGPKPEANCIIEYGKQNPDSKLTLILVKNGGIVNGYVTLMGASDYVNTLFKNKNVSINVELYFDATGHILPDSSSLKTDLELKYKQTADFSARGFMPSTTAYPFVLPNAGTHNENYIFGQCYYKASDGALFPLEVTVMLNKRLPDSRTSYVMTFLWSLNAGLAPETTQATLITSPFTFSYIREDD | soluble |
| MTHRTKTRPVKVGNLTIGGNNELIIQSMTTTKTHDVEATVAEIKRLEEAGCQVVRVAVPDERAANAIADIKKQINIPLVADIHFDYRLALKAIEGGIDKVRINPGNIGRRHKVEAVVNAAKERGIPIRIGVNAGSLERHILEKYGYPTADGMVESALHHIKILEDLDFHDIIVSMKASDVNLAIEAYEKAARAFDYPLHLGITESGTLFAGTVKSAAGLGAILNKGIGNTLRISLSADPVEEVKVARELLKSFGLASNAATLISCPTCGRIEIDLISIANEVEEYISTLQVPIKVAVLGCAVNGPGEAREADIGIAGARGEGLLFRKGQVVRKVPEEIMVEELKKEIDVIAAEMAAEREKEKETQEQ | not soluble |
| SSGRSVRAETRSRAKDDIKKVMAATERVRRWEKKWVTVGDTSLRIFKWVPVTETKQIYKPKGAGPAVRELKGFPTDVVLENARSVLLDFQDDNSNQSFLSDAYQSNTKVDSSSNSSPQHVSEAVSPSHPPYYRTEDSQPPTLGQESMEAEREASTTSSEVTDEPPTLIKEDVLSLSTQEEEEAIGAPPLKRVCTEHNSTVS | soluble |
| QKSNRKDYSLTMQSSVTVQEGMCVHVRCSFSYPVDSDTDSDPVHGYWFRAGNDISWKAPVATNNPAWAVQEETRDRFHLLGDPQTKNCTLSIRDARMSDAGRYFFRMEKGNIKWNYKYDQLSVNVTALTHRP | soluble |
| MGHHHHHHHHHHSSGHIDDDDKHMTSLLSQFVSKTDFESYEDFQENFKILVPENFNFAYDVVDVYARDSPEKLAMIWCDDYGNEKIFTFKDLKYYSDKAANFFVKHGIGKGDYVMLTLKSRYDFWYCMLGLHKLGAIAVPATHMLKTRDIVYRIEKAGLKMIVCIAEDDVPEQVDEAHAECGDIPLKKAKVGGDVLEGWIDFRKELEESSPIFERPTGEVSTKNEDICLVYFSSGTAGFPKMVEHDNTYPLGHILTAKYWQNVEDDGLHYTVADSGWGKCVWGKLYGQWIAGCAVFVYDYDRFEAKNMLEKASKYGVTTFCAPPTIYRFLIKEDLSHYNFSTLKYAVVAGEPLNPEVFNRFLEFTGIKLMEGFGQTETVVTIATFPWMEPKPGSIGKPTPGYKIELMDRDGRLCEVGEEGEIVINTMEGKPVGLFVHYGKDPERTEETWHDGYYHTGDMAWMDEDGYLWFVGRADDIIKTSGYKVGPFEVESALIQHPAVLECAITGVPDPVRGQVIKATIVLTKDYTPSDSLKNELQDHVKNVTAPYKYPRIIEFVPELPKTISGKIRRVEIRDKDQSQ | soluble |
| MGHHHHHHHHHHSSGHIEGRHMKLEFMNLLSENKKENYYYCGENKVALVTGAGRGIGREIAKMLAKSVSHVICISRTQKSCDSVVDEIKSFGYESSGYAGDVSKKEEISEVINKILTEHKNVDILVNNAGITRDNLFLRMKNDEWEDVLRTNLNSLFYITQPISKRMINNRYGRIINISSIVGLTGNVGQANYSSSKAGVIGFTKSLAKELASRNITVNAIAPGFISSDMTDKISEQIKKNIISNIPAGRMGTPEEVANLACFLSSDKSGYINGRVFVIDGGLSP | soluble |
| GMSSDVQKGDNLETPGARDLLLQTASNIMREGDVVDISLSELSLRSGLNSALVKYYFGNKAGLLKALLDRDMENIVKSVDALLAKDDMSPEAKLRRHISKCIDTYYDYPYLNRLLMRLVRDSDEAEAKRIADQYLLPLHRAYNRFIGEGVKAGVFRPINPQLFYFTVTGAADRFFSARLVLKHCFDQDTLTEQLRDSYREHTVDFIMAGILAH | soluble |
| MKNFVAGAQSGRKIQSGGCAIHCQDCSISQLCIPFTLNEQELDQLDNIIERKKPIQKSQVLFKAGDSLNSIYAIRSGTIKSYTISESGEEQITSFHLPGDLVGFDAITQMQHPSFAQALETAMVCEIPFDILDDLAGKMPKLRQQILRLMSSEIKSDQEMILLLSKMNAEERLAAFIHNLSKRYSARGFSAREFRLTMTRGDIGNYLGLTVETISRLLGRFQKLGVISVQGKYITINDLNGLIELTGTNKTKITLVK | not soluble |
| MGSDKIHHHHHHMSEDLLNSFQEAYSNLELFPLMERNEMERFRVEYGDDLIADLNQLVEDSPNGDGKIVFTGHRGCGKSTLLAEFSRQIQDKYFVVLFSIADKIEMSAVNHINILFAIAVNLMTEAEARKVDIPQSTKEALYKWFATRTRTEESNLQAEVSIGFDLLKLISSKLKADASVRDEIKQEFERKLSDLVARINEIAALIQAATKQNVLVIIDDLDKLDLGRVNEIYRDNIKALCQPNFQIIYTIPIAVLRETFISTIIATETNDQVVAMPVLKIFDKGKNRFPNAQPRREATKILGEVLQKRIPNELIAAETAEKIVIYSGGVLRELIRISKECCRICLRTIRRNPSAEVIIDDKILLQAINKIRNDFSIRLGKTDIDILQSVYEQFMPNDPKQAEFLDLLHGLYVLEYRTDETWYDVHPIIIESLKRQGAINVK | not soluble |
| GHMSGFKHVSHVGWDPQNGFDVNNLDPDLRSLFSRAGISEAQLTDAETSKLIYDFIEDQGGLEAVRQEMRRQ | soluble |
| MGSDKIHHHHHHVAELVFFSGTMDCGKSTLALQMDHNHRARGRGGVRFSRNDRAGGARISSRLGLETDCVEVLDTTDFWDEVIERRTRGLRVDYLICDEAQFYSPLQVEQLARIVDEIDVDVFAFGISADFRTRLFPGSQRLIELADRVQVLQVEALCWCGRRATHNARTVDGVMVTEGAQVVVGDVDMAGDPASASADHAPVVGYETLCRRHFMRRVTAHGANVMAQQDQLLPFEVDACLWHGSGETRHS | not soluble |
| MGSDKIHHHHHHMNILFVSDLGSLGGGETSLFNLINEFASDNKKYNINNFLMCKTEGKLVDKCRGINVPCKVFDFKAAFKSFKFREISKAIKVIKEFLYSNNIDVIQCNEWSSAVLFSIISKVSSKNCKIIWICHGQWYKFNLIKRVLVNSLINRIISVSESVQNNLIINKLNKRKLLKQNLGIDLDRFRLGNGDKLREELHIQKEDKVLGVIARFQPIKGQKLVIEAARDIVEAGYKNYKFLLVGDSIFNNPKDSMYKNEVIEMIKEYKLQKNVLILGERNDVPDILALLDALIVPSINESFGMVVVEAFAAGCPVISTPCDGPMEIIKNGYSGVIINERNSENLKDAITDLMKEETDLEMMKINSMKESKKYDISNIAQFYCKQYALLCK | not soluble |
| MHKTHSTMSGKSMKVIGVLALQGAFLEHTNHLKRCLAENDYGIKIEIKTVKTPEDLAQCDALIIPGGESTSMSLIAQRTGLYPCLYEFVHNPEKVVWGTCAGLIFLSAQLENESALVKTLGVLKVDVRRNAFGRQAQSFTQKCDFSNFIPGCDNFPATFIRAPVIERILDPIAVKSLYELPVNGKDVVVAATQNHNILVTSFHPELADSDTRFHDWFIRQFVSN | soluble |
| MRDIVIIGHKAKTSGDFSLNDLPGSAGRMDILCRCVSSALFLSFGMRRDVNVHLLLLGEPDPGKIIRFEGLHLRYLNPDERSSGSLIQKALLKNAAGQDIRSTPGVWTRTGDLNSLLASFEGRTLLYLREDGKDFREIAREIQDPVFILGDHTGVTEEEEKQLLEAGAQVISVGPISLHSNHCITLIHNELDRAEAERGEIPGGNISRPED | not soluble |

Source: the DeepSol protein solubility set
